# Positions count from the first letter of the chain named. Numbered stars: 1 amine (or outer) side, 2 acyl side, 3 side chain; on linkers, the order of the positions; unused ones are H or OH. Bridge positions count the residues as written; N and C are the ends. Side chains are listed from the residue outwards. Ends that are not written are not given here. * marks the point of attachment. C20 diacid = O=C(O)CCCCCCCCCCCCCCCCCCC(=O)*; γGlu = O=C(O)[C@H](CCC(=O)[*:2])N[*:1]
# T1: human amylin receptor (amylin 3(a) receptor: human calcitonin receptor with RAMP-3) (human, UniProt P30988 25-474; O60896 24-148, limits assumed)
# T1 sequence (looked up) 1: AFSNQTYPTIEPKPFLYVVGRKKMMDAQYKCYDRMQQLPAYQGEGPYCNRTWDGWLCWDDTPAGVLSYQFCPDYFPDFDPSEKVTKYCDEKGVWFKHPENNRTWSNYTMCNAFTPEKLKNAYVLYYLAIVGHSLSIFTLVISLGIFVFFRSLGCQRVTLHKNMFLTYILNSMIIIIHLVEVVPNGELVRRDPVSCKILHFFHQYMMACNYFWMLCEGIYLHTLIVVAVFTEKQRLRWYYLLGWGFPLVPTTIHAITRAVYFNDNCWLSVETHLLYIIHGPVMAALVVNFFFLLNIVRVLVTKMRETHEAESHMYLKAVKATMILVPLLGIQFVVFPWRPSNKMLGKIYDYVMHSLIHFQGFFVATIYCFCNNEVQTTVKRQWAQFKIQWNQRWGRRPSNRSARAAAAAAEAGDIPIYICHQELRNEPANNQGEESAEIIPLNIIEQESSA
# T1 sequence (looked up) 2: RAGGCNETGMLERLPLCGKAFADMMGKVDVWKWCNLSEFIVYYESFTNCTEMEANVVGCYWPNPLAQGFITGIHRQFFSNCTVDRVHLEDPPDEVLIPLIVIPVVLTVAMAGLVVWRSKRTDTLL
# T2: human calcitonin receptor (human, UniProt P30988 25-474)
# T2 sequence (looked up): T1 sequence (looked up) 1
# T3: human calcitonin receptor (human, UniProt P30988 25-474)
# T3 construct: whole, on cells; Assay used cell membranes of the transfected BHK cells; also called hCTR; hCT
# T3 sequence (looked up): T1 sequence (looked up) 1
# T4: human amylin receptor (human, UniProt P30988 25-474; O60896 24-148, limits assumed)
# T4 construct: whole, on cells; Assay used cell membranes of the Amylin 3(a)/CRE-luc BHK cells; the complex is called the human amylin receptor; also called hAmylin-R; hAmylinR
# T4 sequence (looked up) 1: T1 sequence (looked up) 1
# T4 sequence (looked up) 2: T1 sequence (looked up) 2
# B1: N^ε1-[(4S)-4-carboxy-4-[[(4S)-4-carboxy-4-(19-carboxynonadecanoylamino)butanoyl]amino]butanoyl]-[Glu14,Arg17,Pro21,Pro27,Arg34]-h-amylin (peptide)
# peptide: K([γGlu-γGlu-C20 diacid])CNTATCATQRLAEFLRHSSPNFGAIPSSTNVGRNTY-NH2
# modifications: disulfide 2-7; N-terminus assumed
# SMILES: CC[C@H](C)[C@H](NC(=O)[C@H](C)NC(=O)CNC(=O)[C@H](Cc1ccccc1)NC(=O)[C@H](CC(N)=O)NC(=O)[C@@H]1CCCN1C(=O)[C@H](CO)NC(=O)[C@H](CO)NC(=O)[C@H](Cc1c[nH]cn1)NC(=O)[C@H](CCCNC(=N)N)NC(=O)[C@H](CC(C)C)NC(=O)[C@H](Cc1ccccc1)NC(=O)[C@H](CCC(=O)O)NC(=O)[C@H](C)NC(=O)[C@H](CC(C)C)NC(=O)[C@H](CCCNC(=N)N)NC(=O)[C@H](CCC(N)=O)NC(=O)[C@@H](NC(=O)[C@H](C)NC(=O)[C@@H]1CSSC[C@H](NC(=O)[C@@H](N)CCCCNC(=O)CC[C@H](NC(=O)CC[C@H](NC(=O)CCCCCCCCCCCCCCCCCCC(=O)O)C(=O)O)C(=O)O)C(=O)N[C@@H](CC(N)=O)C(=O)N[C@@H]([C@@H](C)O)C(=O)N[C@@H](C)C(=O)N[C@@H]([C@@H](C)O)C(=O)N1)[C@@H](C)O)C(=O)N1CCC[C@H]1C(=O)N[C@@H](CO)C(=O)N[C@@H](CO)C(=O)N[C@H](C(=O)N[C@@H](CC(N)=O)C(=O)N[C@H](C(=O)NCC(=O)N[C@@H](CCCNC(=N)N)C(=O)N[C@@H](CC(N)=O)C(=O)N[C@H](C(=O)N[C@@H](Cc1ccc(O)cc1)C(N)=O)[C@@H](C)O)C(C)C)[C@@H](C)O
# notes: also called compound 88
# B2: N^ε1-[(4S)-4-carboxy-4-[[(4S)-4-carboxy-4-(19-carboxynonadecanoylamino)butanoyl]amino]butanoyl]-[Glu14,Arg17,Pro21,Pro27,His34]-h-amylin (peptide)
# peptide: K([γGlu-γGlu-C20 diacid])CNTATCATQRLAEFLRHSSPNFGAIPSSTNVGHNTY-NH2
# modifications: disulfide 2-7; N-terminus assumed
# SMILES: CC[C@H](C)[C@H](NC(=O)[C@H](C)NC(=O)CNC(=O)[C@H](Cc1ccccc1)NC(=O)[C@H](CC(N)=O)NC(=O)[C@@H]1CCCN1C(=O)[C@H](CO)NC(=O)[C@H](CO)NC(=O)[C@H](Cc1c[nH]cn1)NC(=O)[C@H](CCCNC(=N)N)NC(=O)[C@H](CC(C)C)NC(=O)[C@H](Cc1ccccc1)NC(=O)[C@H](CCC(=O)O)NC(=O)[C@H](C)NC(=O)[C@H](CC(C)C)NC(=O)[C@H](CCCNC(=N)N)NC(=O)[C@H](CCC(N)=O)NC(=O)[C@@H](NC(=O)[C@H](C)NC(=O)[C@@H]1CSSC[C@H](NC(=O)[C@@H](N)CCCCNC(=O)CC[C@H](NC(=O)CC[C@H](NC(=O)CCCCCCCCCCCCCCCCCCC(=O)O)C(=O)O)C(=O)O)C(=O)N[C@@H](CC(N)=O)C(=O)N[C@@H]([C@@H](C)O)C(=O)N[C@@H](C)C(=O)N[C@@H]([C@@H](C)O)C(=O)N1)[C@@H](C)O)C(=O)N1CCC[C@H]1C(=O)N[C@@H](CO)C(=O)N[C@@H](CO)C(=O)N[C@H](C(=O)N[C@@H](CC(N)=O)C(=O)N[C@H](C(=O)NCC(=O)N[C@@H](Cc1c[nH]cn1)C(=O)N[C@@H](CC(N)=O)C(=O)N[C@H](C(=O)N[C@@H](Cc1ccc(O)cc1)C(N)=O)[C@@H](C)O)C(C)C)[C@@H](C)O
# notes: also called compound 87
# B3: N^α1-[2-[2-[2-[[2-[2-[2-[[(4S)-4-carboxy-4-(19-carboxynonadecanoylamino)butanoyl]amino]ethoxy]ethoxy]acetyl]amino]ethoxy]ethoxy]acetyl]-[Arg17,Pro21,Pro27]-h-am … (peptide)
# peptide: KCNTATCATQRLANFLRHSSPNFGAIPSSTNVGSNTY
# modifications: C20 diacid-gGlu-2xOEG on the alpha amino group of the N-terminal residue (Lys1); disulfide Cys2-Cys7; C-terminal amide
# notes: Synthetic analogue; also called compound 24
# B4: N^α1 N^α1-[(4S)-4-carboxy-4-[[(4S)-4-carboxy-4-(19-carboxynonadecanoylamino)butanoyl]amino]butanoyl]-[Glu14,Arg17,Pro21,Pro27]-h-amylin (peptide)
# peptide: {C20 diacid-γGlu-γGlu}-KCNTATCATQRLAEFLRHSSPNFGAIPSSTNVGSNTY-NH2
# modifications: disulfide 2-7
# SMILES: CC[C@H](C)[C@H](NC(=O)[C@H](C)NC(=O)CNC(=O)[C@H](Cc1ccccc1)NC(=O)[C@H](CC(N)=O)NC(=O)[C@@H]1CCCN1C(=O)[C@H](CO)NC(=O)[C@H](CO)NC(=O)[C@H](Cc1c[nH]cn1)NC(=O)[C@H](CCCNC(=N)N)NC(=O)[C@H](CC(C)C)NC(=O)[C@H](Cc1ccccc1)NC(=O)[C@H](CCC(=O)O)NC(=O)[C@H](C)NC(=O)[C@H](CC(C)C)NC(=O)[C@H](CCCNC(=N)N)NC(=O)[C@H](CCC(N)=O)NC(=O)[C@@H](NC(=O)[C@H](C)NC(=O)[C@@H]1CSSC[C@H](NC(=O)[C@H](CCCCN)NC(=O)CC[C@H](NC(=O)CC[C@H](NC(=O)CCCCCCCCCCCCCCCCCCC(=O)O)C(=O)O)C(=O)O)C(=O)N[C@@H](CC(N)=O)C(=O)N[C@@H]([C@@H](C)O)C(=O)N[C@@H](C)C(=O)N[C@@H]([C@@H](C)O)C(=O)N1)[C@@H](C)O)C(=O)N1CCC[C@H]1C(=O)N[C@@H](CO)C(=O)N[C@@H](CO)C(=O)N[C@H](C(=O)N[C@@H](CC(N)=O)C(=O)N[C@H](C(=O)NCC(=O)N[C@@H](CO)C(=O)N[C@@H](CC(N)=O)C(=O)N[C@H](C(=O)N[C@@H](Cc1ccc(O)cc1)C(N)=O)[C@@H](C)O)C(C)C)[C@@H](C)O
# notes: Synthetic analogue; also called compound 15
# B5: N^α1-[(4S)-4-carboxy-4-(19-carboxynonadecanoylamino)butanoyl]-[Arg17,Pro21,Pro27,Lys35]-h-amylin (peptide)
# peptide: B3 peptide with N35K
# modifications: C20 diacid-gGlu on the alpha amino group of the N-terminal residue (Lys1); disulfide Cys2-Cys7; C-terminal amide
# notes: Synthetic analogue; also called compound 34
# B6: N^ε1-[(4S)-4-carboxy-4-[[(4S)-4-carboxy-4-(19-carboxynonadecanoylamino)butanoyl]amino]butanoyl]-[Asp14,Arg17,Pro21,Pro27,Asp35]-h-amylin (peptide)
# peptide: K([γGlu-γGlu-C20 diacid])CNTATCATQRLADFLRHSSPNFGAIPSSTNVGSDTY-NH2
# modifications: disulfide 2-7; N-terminus assumed
# SMILES: CC[C@H](C)[C@H](NC(=O)[C@H](C)NC(=O)CNC(=O)[C@H](Cc1ccccc1)NC(=O)[C@H](CC(N)=O)NC(=O)[C@@H]1CCCN1C(=O)[C@H](CO)NC(=O)[C@H](CO)NC(=O)[C@H](Cc1c[nH]cn1)NC(=O)[C@H](CCCNC(=N)N)NC(=O)[C@H](CC(C)C)NC(=O)[C@H](Cc1ccccc1)NC(=O)[C@H](CC(=O)O)NC(=O)[C@H](C)NC(=O)[C@H](CC(C)C)NC(=O)[C@H](CCCNC(=N)N)NC(=O)[C@H](CCC(N)=O)NC(=O)[C@@H](NC(=O)[C@H](C)NC(=O)[C@@H]1CSSC[C@H](NC(=O)[C@@H](N)CCCCNC(=O)CC[C@H](NC(=O)CC[C@H](NC(=O)CCCCCCCCCCCCCCCCCCC(=O)O)C(=O)O)C(=O)O)C(=O)N[C@@H](CC(N)=O)C(=O)N[C@@H]([C@@H](C)O)C(=O)N[C@@H](C)C(=O)N[C@@H]([C@@H](C)O)C(=O)N1)[C@@H](C)O)C(=O)N1CCC[C@H]1C(=O)N[C@@H](CO)C(=O)N[C@@H](CO)C(=O)N[C@H](C(=O)N[C@@H](CC(N)=O)C(=O)N[C@H](C(=O)NCC(=O)N[C@@H](CO)C(=O)N[C@@H](CC(=O)O)C(=O)N[C@H](C(=O)N[C@@H](Cc1ccc(O)cc1)C(N)=O)[C@@H](C)O)C(C)C)[C@@H](C)O
# notes: Synthetic analogue; also called compound 2
# Target: T1, human amylin receptor (amylin 3(a) …)
# Test: cell-based or functional assay
row,Binder,hAmylin-R funct. EC50 (pM)
1,B1,773
2,B2,285

# Target: T2, human calcitonin receptor
# Test: cell-based or functional assay
row,Binder,Ratio hCT/hAmylin funct. [ratio]
1,B1,8.5
2,B2,3.8

# Target: T3, human calcitonin receptor
# Test: SPA radioligand competition (125I-calcitonin), membranes of BHK cells with human calcitonin receptor
# Summary of the method: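 BHK hCTR membranes 35 ng/μL + SPA beads 0.05 mg/well; buffer 50 mM Hepes pH 7.4, 1 mM CaCl2, 5 mM MgCl₂, 0.1% OA, 0.02% Tween20. 120 min, 25° C., shaking. Scintillation count; IC50 by one-site binding competition.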
row,Binder,IC50 [nM]
1,B3,102
2,B4,15.5
3,B5,73.4
4,B6,19.5

# Target: T3, human calcitonin receptor
# Test: ratio IC50 hCTR / IC50 hAmylin-R of the two SPA competition assays; reference: human amylin receptor
# Summary of the method: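 Competition binding by SPA with cell membranes (35 ng/μL) and SPA beads in 50 mM Hepes pH 7.4 with 1 mM CaCl2, 5 mM MgCl2, 0.1% OA and 0.02% Tween20. Incubated 120 min at 25 °C with shaking, then counted.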
row,Binder,Ratio hCT/hAmylin binding
1,B3,90
2,B4,26
3,B5,64.4
4,B6,47.5

# Target: T4, human amylin receptor
# Test: SPA radioligand competition (125I-rat amylin), membranes of BHK cells with human calcitonin receptor + RAMP-3
# Method: The binding assay was performed using scintillation proximity assay (SPA) beads (RPNQ0001) from PerkinElmer and cell membranes from the Amylin 3(a)/CRE-luc cells (as described in Assay (II)) were used. Membranes were prepared in the following way; the cells were rinsed with PBS and incubated with Versene for approximately 5 min before harvesting. The cells were flushed with PBS and the cell-suspension was centrifuged for 5 min at 1000 rpm. Cells were homogenized (ultrathurrax) in a buffer containing 20 mM Na-HEPES and 10 mM EDTA (pH 7.4) and centrifuged at 20.000 rpm for 15 min. The resulting pellet was resuspended, homogenized and centrifuged (20.000 rpm, 15 min) in a buffer containing 20 mM Na-HEPES and 0.1 mM EDTA (pH 7.4, buffer 2). The resulting pellet was resuspended in buffer 2 and protein concentration was measured (BCA protein Assay, Pierce). The homogenate was kept cold during the whole procedure. The membranes were kept at −80° C. until use. The assay was performed in a 384 well Optiplate (PerkinElmer) in a total volume of 40 ul. Membranes were mixed with SPA beads. Final concentration of membranes 35 ng/μL final and SPA beads was 0.05 mg/well. Test-compounds were dissolved in DMSO and further diluted in assay buffer (50 mM Hepes, pH 7.4, 1 mM CaCl2, 5 mM MgCl₂, 0.1% OA and 0.02% Tween20). […] The final mixture was incubated with shaking at 400 rpm for 120 min at 25° C. prior to centrifugation (1500 rpm, 10 min). Samples were analyzed on TopCounter™ (Packard). The IC₅₀ was calculated using (one site binding competition analysis) GraphPad Prism5 as a measure of receptor affinity.
row,Binder,IC50 [nM]
1,B3,1.14
2,B4,0.597
3,B5,1.14
4,B6,0.411

# Reference: US20140087995A1 (published 2014)
